Experimental data: patent US9993529B2, “Stable formulations of a hyaluronan-degrading enzyme” (Halozyme, Inc., priority 2011, dated 2018)

Experiment: RP-HPLC insulin apparent solubility / percent recovery (content)
Details: 7 days at 2-8° C.
Procedure, shortened: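 Vial samples withdrawn at each time point, centrifuged, held at 4 °C, run in duplicate by RP-HPLC. Apparent solubility = combined insulin main and desamido peak areas as percent versus standards/initial formulation; purity = main insulin peak as percent of all insulin species.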

Substance: Regular Insulin: mature human insulin, SEQ ID NOS: 103 and 104
- Solubility of regular Insulin (0.2% methylparaben + […] m-cresol, pH 6.6, NaCl 50 mM): 15.3%
- Solubility of regular Insulin (0.2% methylparaben + […] m-cresol, pH 6.6, NaCl 80 mM): 9.0%
- Solubility of regular Insulin (0.2% methylparaben + […] m-cresol, pH 6.6, NaCl 140 mM): 5.8%
- Solubility of regular Insulin (0.2% methylparaben + […] m-cresol, pH 6.8, NaCl 50 mM): 34.1%
- Solubility of regular Insulin (0.2% methylparaben + […] m-cresol, pH 6.8, NaCl 110 mM): 11.4%
- Solubility of regular Insulin (0.2% methylparaben + […] m-cresol, pH 7.0, NaCl 50 mM): 86.9%
- Solubility of regular Insulin (0.2% methylparaben + […] m-cresol, pH 7.0, NaCl 80 mM): 46.6%
- Solubility of regular Insulin (0.2% methylparaben + […] m-cresol, pH 7.0, NaCl 140 mM): 15.9%
- Solubility of regular Insulin (0.2% methylparaben + […] m-cresol, pH 7.2, NaCl 80 mM): 90.6%
- Solubility of regular Insulin (0.2% methylparaben + […] m-cresol, pH 7.2, NaCl 110 mM): 47.1%
- Solubility of regular Insulin (0.2% methylparaben + […] m-cresol, pH 7.2, NaCl 140 mM): 32.9%
- Solubility of regular Insulin (0.2% methylparaben + […] m-cresol, pH 7.4, NaCl 50 mM): 98.1%
- Solubility of regular Insulin (0.2% methylparaben + […] m-cresol, pH 7.4, NaCl 80 mM): 97.7%
- Solubility of regular Insulin (0.2% methylparaben + […] m-cresol, pH 7.4, NaCl 110 mM): 94.6%
- Solubility of regular Insulin (0.2% methylparaben + […] m-cresol, pH 7.4, NaCl 140 mM): 59.1%
- Solubility of regular Insulin (0.2% methylparaben + […] m-cresol, pH 7.6, NaCl 50 mM): 98.1%
- Solubility of regular Insulin (0.2% methylparaben + […] m-cresol, pH 7.6, NaCl 80 mM): 97.9%
- Solubility of regular Insulin (0.2% methylparaben + […] m-cresol, pH 7.6, NaCl 140 mM): 95.4%
- Solubility of regular Insulin (0.2% phenol + […] m-cresol, pH 6.6, NaCl 50 mM): 26.8%
- Solubility of regular Insulin (0.2% phenol + […] m-cresol, pH 6.6, NaCl 80 mM): 8.7%
- Solubility of regular Insulin (0.2% phenol + […] m-cresol, pH 6.6, NaCl 110 mM): 6.5%
- Solubility of regular Insulin (0.2% phenol + […] m-cresol, pH 6.6, NaCl 140 mM): 5.8%
- Solubility of regular Insulin (0.2% phenol + […] m-cresol, pH 6.8, NaCl 50 mM): 38.4%
- Solubility of regular Insulin (0.2% phenol + […] m-cresol, pH 6.8, NaCl 80 mM): 17.1%
- Solubility of regular Insulin (0.2% phenol + […] m-cresol, pH 6.8, NaCl 140 mM): 6.5%
- Solubility of regular Insulin (0.2% phenol + […] m-cresol, pH 7.0, NaCl 50 mM): 100.3%
- Solubility of regular Insulin (0.2% phenol + […] m-cresol, pH 7.0, NaCl 80 mM): 35.7%
- Solubility of regular Insulin (0.2% phenol + […] m-cresol, pH 7.0, NaCl 110 mM): 17.7%
- Solubility of regular Insulin (0.2% phenol + […] m-cresol, pH 7.0, NaCl 140 mM): 11.6%
- Solubility of regular Insulin (0.2% phenol + […] m-cresol, pH 7.2, NaCl 80 mM): 92.2%
- Solubility of regular Insulin (0.2% phenol + […] m-cresol, pH 7.2, NaCl 110 mM): 37.4%
- Solubility of regular Insulin (0.2% phenol + […] m-cresol, pH 7.2, NaCl 140 mM): 18.9%
- Solubility of regular Insulin (0.2% phenol + […] m-cresol, pH 7.4, NaCl 80 mM): 99.2%
- Solubility of regular Insulin (0.2% phenol + […] m-cresol, pH 7.4, NaCl 110 mM): 87.8%
- Solubility of regular Insulin (0.2% phenol + […] m-cresol, pH 7.4, NaCl 140 mM): 40.6%
- Solubility of regular Insulin (0.2% phenol + […] m-cresol, pH 7.6, NaCl 80 mM): 99.2%
- Solubility of regular Insulin (0.2% phenol + […] m-cresol, pH 7.6, NaCl 110 mM): 98.5%
- Solubility of regular Insulin (0.2% phenol + […] m-cresol, pH 7.6, NaCl 140 mM): 82.2%
- Solubility of regular Insulin ([…] phenol + […] m-cresol, pH 6.6, NaCl 50 mM): 31.2%
- Solubility of regular Insulin ([…] phenol + […] m-cresol, pH 6.6, NaCl 80 mM): 18.6%
- Solubility of regular Insulin ([…] phenol + […] m-cresol, pH 6.6, NaCl 140 mM): 12.9%
- Solubility of regular Insulin ([…] phenol + […] m-cresol, pH 6.8, NaCl 50 mM): 66.6%
- Solubility of regular Insulin ([…] phenol + […] m-cresol, pH 6.8, NaCl 80 mM): 24.9%
- Solubility of regular Insulin ([…] phenol + […] m-cresol, pH 7.0, NaCl 50 mM): 96.7%
- Solubility of regular Insulin ([…] phenol + […] m-cresol, pH 7.0, NaCl 80 mM): 80.8%
- Solubility of regular Insulin ([…] phenol + […] m-cresol, pH 7.0, NaCl 110 mM): 32.9%
- Solubility of regular Insulin ([…] phenol + […] m-cresol, pH 7.0, NaCl 140 mM): 17.1%
- Solubility of regular Insulin ([…] phenol + […] m-cresol, pH 7.2, NaCl 80 mM): 96.4%
- Solubility of regular Insulin ([…] phenol + […] m-cresol, pH 7.2, NaCl 110 mM): 58.7%
- Solubility of regular Insulin ([…] phenol + […] m-cresol, pH 7.2, NaCl 140 mM): 33.1%
- Solubility of regular Insulin ([…] phenol + […] m-cresol, pH 7.4, NaCl 50 mM): 96.7%
- Solubility of regular Insulin ([…] phenol + […] m-cresol, pH 7.4, NaCl 80 mM): 97.3%
- Solubility of regular Insulin ([…] phenol + […] m-cresol, pH 7.4, NaCl 110 mM): 94.2%
- Solubility of regular Insulin ([…] phenol + […] m-cresol, pH 7.4, NaCl 140 mM): 57.9%
- Solubility of regular Insulin ([…] phenol + […] m-cresol, pH 7.6, NaCl 50 mM): 97.2%
- Solubility of regular Insulin ([…] phenol + […] m-cresol, pH 7.6, NaCl 80 mM): 97.1%
- Solubility of regular Insulin ([…] phenol + […] m-cresol, pH 7.6, NaCl 110 mM): 97.1%
- Solubility of regular Insulin ([…] phenol + […] m-cresol, pH 7.6, NaCl 140 mM): 91.7%
